The source of these data is patent publication US8440629B2.

Like-named read-outs stand apart in the source and are kept apart here. Positions of bridges follow the written chain, without caps; N, C: chain ends. No end group written: not given here.

Test [1] addresses recombinant human LRP1 ligand binding cluster II (human). Put plainly: solid-phase binding assay, immobilised receptor.
For test [2] the target is unchanged. Put plainly: competition ELISA, inhibitor pre-incubated with immobilised LRP1 cluster II before washing; competitor ligand RAP d3. In general terms: An ELISA detects its analyte on a solid surface through an enzyme-linked reagent.
Test [3] shares this target. Put plainly: competition ELISA on immobilised LRP1 cluster II; competitor ligand RAP d3 (2 nM).
Test [4] has as its target LRP1 CR3-5 (human). Kind of test: solid-phase binding assay, immobilised CR protein, anti-RAP detection.
The target in test [5] is LRP1 CR3-5 (human). The test is described as above. This is another data set of the same source.
Another test deals with LRP2 CR3536 (human) (UniProt P98164). Described as above.
The target in another test is LRP2 CR34-36 (human) (UniProt P98164). The test is described as above.
In test [6] the target is MAT CR23 (human). The description is as above.
Chain of MAT CR23 (human) (Q9Y5Y6 whole entry): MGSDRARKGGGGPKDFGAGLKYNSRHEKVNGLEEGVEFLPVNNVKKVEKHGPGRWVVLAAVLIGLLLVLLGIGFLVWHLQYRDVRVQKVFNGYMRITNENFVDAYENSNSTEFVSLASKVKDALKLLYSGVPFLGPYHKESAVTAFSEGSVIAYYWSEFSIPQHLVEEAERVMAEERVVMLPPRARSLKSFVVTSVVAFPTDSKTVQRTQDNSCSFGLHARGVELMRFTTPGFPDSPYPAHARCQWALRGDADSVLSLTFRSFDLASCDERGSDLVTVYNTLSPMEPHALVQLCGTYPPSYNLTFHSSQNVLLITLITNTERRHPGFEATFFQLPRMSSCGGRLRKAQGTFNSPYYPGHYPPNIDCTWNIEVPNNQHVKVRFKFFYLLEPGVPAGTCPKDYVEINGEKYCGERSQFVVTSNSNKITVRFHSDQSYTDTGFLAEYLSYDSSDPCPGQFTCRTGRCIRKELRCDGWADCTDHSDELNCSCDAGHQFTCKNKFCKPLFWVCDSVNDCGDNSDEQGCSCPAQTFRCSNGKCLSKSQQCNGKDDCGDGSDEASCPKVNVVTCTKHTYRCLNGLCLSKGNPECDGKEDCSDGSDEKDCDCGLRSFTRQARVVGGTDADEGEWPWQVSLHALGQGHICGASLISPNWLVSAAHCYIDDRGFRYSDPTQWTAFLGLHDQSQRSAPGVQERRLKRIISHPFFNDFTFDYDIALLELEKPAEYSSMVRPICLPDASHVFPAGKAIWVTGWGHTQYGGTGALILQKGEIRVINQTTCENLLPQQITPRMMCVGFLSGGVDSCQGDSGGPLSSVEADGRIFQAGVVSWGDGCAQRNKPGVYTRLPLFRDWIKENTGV
Test [7] deals with LRP2 CR89 (human) (UniProt P98164). The test is described as above.
For test [8] the target is unchanged. The description is as above. The source holds these as a separate data set.
The target of a further test is LRP2 CR89 R1088D (human) (UniProt P98164). Kind of test: solid-phase binding assay, immobilised mutant CR protein.
The target in test [9] is LRP1 CR3-5 (human). Kind of test: phage panning of a RAP library randomised at 256 and 270 on immobilised LRP1 CR3-5.
The target in test [10] is MAT CR23 (human). Kind of test: solid-phase binding assay (FIG. 9); target not given, MatRAP1 was selected on MAT CR23.
The target of the next test is 8D6 CR12 (human). Put plainly: solid-phase binding assay (FIG. 10).
Test [11] concerns the target recombinant human LRP1 ligand binding cluster II (human). Put plainly: solid-phase binding assay, immobilised receptor, streptavidin-HRP detection, EDTA-corrected.

A word on the Kd: it is the equilibrium constant for the complex coming apart. Broadly, the EC50 is the concentration at which the effect is half-maximal.

B1: Heptide (peptide)
peptide: CGKHFEAKIEKHNHYQKQLEIAHEKLRHAESVGDAERVSRSREKHALLEGRTKELGYTVKKHLQDACG
modifications: disulfide 1-67
For the molecule B1, the Kd in test [1] was 3.5 nM.

B2: mRAP-8c (peptide)
peptide: CGKHFEAKIEKHNHYQKQLEIAHEKLRHAESVGDGERVSRSREKHALLEGRTKELGYTVKKHLQDGC
modifications: disulfide 1-67
Turning to B2, the dissociation constant Kd in [1] lay within 4 to 6 nM.

B3: Human RAP (ligand)
chain: YSREKNQPKPSPKRESGEEFRMEKLNQLWEKAQRLHLPPVRLAELHADLKIQERDELAWKKLKLDGLDEDGEKEARLIRNLNVILAKYGLDGKKDARQVTSNSLSGTQEDGLDDPRLEKLWHKAKTSGKFSGEELDKLWREFLHHKEKVHEYNVLLETLSRTEEIHENVISPSDLSDIKGSVLHSRHTELKEKLRSINQGLDRLRRVSHQGYSTEAEFEEPRVIDLWDLAQSANLTDKELEAFREELKHFEAKIEKHNHYQKQLEIAHEKLRHAESVGDGERVSRSREKHALLEGRTKELGYTVKKHLQDLSGRISRARHNEL
In the case of B3, in [2], the EC50 turned out to be 0.3 nM. For the same molecule, in test [3], the EC50 came out at 0.5 nM and the fold better EC50 than monomeric mRAPc peptide stood at 64 fold.

B4: RAP d3 (ligand)
chain: LDRLRRVSHQGYSTEAEFEEPRVIDLWDLAQSANLTDKELEAFREELKHFEAKIEKHNHYQKQLEIAHEKLRHAESVGDGERVSRSREKHALLEGRTKELGYTVKKHLQDLSGRISRAR
Turning to B4, the figures for the Kd with LRP1 CR3-5 (human) [4], with LRP1 CR3-5 (human) [5] and in the test with LRP2 CR89 (human) [7] were 16 nM, 11 nM and more than 300 nM, respectively. For the same molecule, the binding as percent of that for LRP1 CR3-5 in the test with LRP2 CR3536 (human), in the test with LRP2 CR34-36 (human) and with MAT CR23 (human) [6] was less than 5% throughout.

B5: MegaRAP1 d3 E270K (ligand)
chain: LDRLRRVSHQGYTTEAKFEEPRVIDLWDLAQSANLTDKELEAFREELKYFKAKIEAHNHYQKQLEIAHEKLRHAESVGDGERVSRSREKHALLEGRTKELGYTVKKHLQDLSGRISRAR
Take B5: the values for the Kd with LRP1 CR3-5 (human) [4] and in the test with LRP2 CR89 (human) [8] were 142 nM and 8 nM, respectively.

B6: RAP d3 E251K, K256A, K270E (ligand)
chain: LDRLRRVSHQGYSTEAEFEEPRVIDLWDLAQSANLTDKELEAFREELKHFKAKIEAHNHYQKQLEIAHEELRHAESVGDGERVSRSREKHALLEGRTKELGYTVKKHLQDLSGRISRAR
B6 gave a Kd with LRP2 CR89 (human) [7] of 114 nM.

B7: MegaRAP1 d3 double revertant A256K, E270K (ligand)
chain: LDRLRRVSHQGYTTEAKFEEPRVIDLWDLAQSANLTDKELEAFREELKYFKAKIEKHNHYQKQLEIAHEKLRHAESVGDGERVSRSREKHALLEGRTKELGYTVKKHLQDLSGRISRAR
B7 had a fold improvement in affinity against the E270K single-site revertant with LRP1 CR3-5 (human) [4] of 30 fold. The molecule further returned a fold loss of affinity against the E270K single-site revertant in the test with LRP2 CR89 (human) [8] of 2 fold.

B8: MegaRAP1 d3 (ligand)
chain: LDRLRRVSHQGYTTEAKFEEPRVIDLWDLAQSANLTDKELEAFREELKYFKAKIEAHNHYQKQLEIAHEELRHAESVGDGERVSRSREKHALLEGRTKELGYTVKKHLQDLSGRISRAR
The molecule B8 returned a Kd with LRP2 CR89 (human) [8] of 38 nM. The molecule also displayed a fold loss of affinity relative to LRP2 CR89 with LRP2 CR89 R1088D (human) of 2 fold.

B9: MegaRAP1 d3 double revertant K251E, E270K (ligand)
chain: LDRLRRVSHQGYTTEAKFEEPRVIDLWDLAQSANLTDKELEAFREELKYFEAKIEAHNHYQKQLEIAHEKLRHAESVGDGERVSRSREKHALLEGRTKELGYTVKKHLQDLSGRISRAR
The molecule B9 gave a fold difference in affinity against the single-site E270K revertant in the test with LRP2 CR89 (human) [8] of 20 fold.

B10: wild-type RAP displayed on M13 phage (ligand)
chain: YSREKNQPKPSPKRESGEEFRMEKLNQLWEKAQRLHLPPVRLAELHADLKIQERDELAWKKLKLDGLDEDGEKEARLIRNLNVILAKYGLDGKKDARQVTSNSLSGTQEDGLDDPRLEKLWHKAKTSGKFSGEELDKLWREFLHHKEKVHEYNVLLETLSRTEEIHENVISPSDLSDIKGSVLHSRHTELKEKLRSINQGLDRLRRVSHQGYSTEAEFEEPRVIDLWDLAQSANLTDKELEAFREELKHFEAKIEKHNHYQKQLEIAHEKLRHAESVGDGERVSRSREKHALLEGRTKELGYTVKKHLQDLSGRISRARAEAETG
In turn, B10 displayed a fold enrichment after one round of panning with LRP1 CR3-5 (human) [9] of 7 fold.

B11: MatRAP1 N-42 (ligand)
chain: FREELKHFGAKIERHNHYQKQLEIAHEWLRHAESVGDGERVSRSREKHALLEGRTKELGYTVKKHLQDLSGRISRAR
For the molecule B11, in the test with MAT CR23 (human) [10], the fold increase in affinity over the full-length d3 variant is 3 fold.

B12: MatRAP1 N-42 without the C-terminal linker and affinity tag (ligand)
chain: FREELKHFGAKIERHNHYQKQLEIAHEWLRHAESVGDGERVSRSREKHALLEGRTKELGYTVKKHLQDLSGRISRAR
As to B12, in the test with MAT CR23 (human) [10], the fold increase in binding affinity over MatRAP1 N-42 is 2 fold and the fold increase in binding affinity over full-length MatRAP1 d3 stood at 6 fold.

B13: mRAP-14c (peptide)
peptide: CEAKIEKHNHYQKQLEIAHEKLRHAESVGDGERVSRSREKHALLEGRTKELGYTVKKHGC
modifications: disulfide 1-60
As for B13, the Kd in test [1] was determined as 21 nM.

B14: MatRAP1 truncated variant, amino acids 243-313 (ligand)
chain: FREELKHFGAKIERHNHYQKQLEIAHEWLRHAESVGDGERVSRSREKHALLEGRTKELGYTVKKHLQDLSG
In the test with MAT CR23 (human) [10], B14 showed a fold increase in binding affinity over MatRAP1 N-42 of 4 fold and a fold increase in binding affinity over full-length MatRAP1 d3 of 12 fold.

B15: truncated 320RAP1, amino acids 243-313 (ligand)
chain: FREELKHFEAKIESHNHYQKQLEIAHESMRHAESVGYGERMSRSREKHALLEGRTKELGYTVTMHLQDLSG
In the case of B15, the fold improvement in affinity over the full-length variant with 8D6 CR12 (human) stood at 3.5 fold.

B16: tag-free RAP d3 peptide linked to maleimide-PEO2-biotin (ligand)
chain: LDRLRRVSHQGYSTEAEFEEPRVIDLWDLAQSANLTDKELEAFREELKHFEAKIEKHNHYQKQLEIAHEKLRHAESVGDGERVSRSREKHALLEGRTKELGYTVKKHLQDLSGRISRARC
modifications: maleimide-PEO2-biotin on the unique C-terminal cysteine
In the case of B16, in [11], the Kd worked out at 8 nM.
